Test results reported in article PMC10106851, “Wheat yellow mosaic virus NIb targets TaVTC2 to elicit broad‐spectrum pathogen resistance in wheat” (Plant Biotechnology Journal, 2023).

Legend:
[1] = molecular target: T1, TaVTC2 (Triticum aestivum, UniProt A0A650C200); test: microscale thermophoresis; assay type: binding
T1 construct: gene GGP2-D; full-length CDS; recombinant GST fusion (TaVTC2-GST) from E. coli BL21
T1 sequence (A0A650C200 1-431): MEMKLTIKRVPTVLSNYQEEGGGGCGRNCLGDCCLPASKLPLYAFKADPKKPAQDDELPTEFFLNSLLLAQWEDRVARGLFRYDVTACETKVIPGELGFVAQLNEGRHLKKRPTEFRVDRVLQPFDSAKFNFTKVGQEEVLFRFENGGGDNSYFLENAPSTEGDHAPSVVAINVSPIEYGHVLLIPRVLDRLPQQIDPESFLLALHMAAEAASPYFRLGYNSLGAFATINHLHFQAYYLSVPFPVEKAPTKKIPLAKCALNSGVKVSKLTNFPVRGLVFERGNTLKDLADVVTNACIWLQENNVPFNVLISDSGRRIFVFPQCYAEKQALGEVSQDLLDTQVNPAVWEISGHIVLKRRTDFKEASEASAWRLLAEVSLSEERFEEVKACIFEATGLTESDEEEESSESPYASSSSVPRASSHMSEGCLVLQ

[2] = molecular target: TaVTC2-GST (wheat (Triticum aestivum)); test: ITC; ITC 200 Micro Calorimeter, 20 °C; 10 mM Tris-HCl, 150 mM sodium chloride, pH 7.5; one-set-of-sites model; which protein was in the syringe is not given
[3] = molecular target: T2, NIb-His (wheat yellow mosaic virus (WYMV)); test: ITC
T2 chain: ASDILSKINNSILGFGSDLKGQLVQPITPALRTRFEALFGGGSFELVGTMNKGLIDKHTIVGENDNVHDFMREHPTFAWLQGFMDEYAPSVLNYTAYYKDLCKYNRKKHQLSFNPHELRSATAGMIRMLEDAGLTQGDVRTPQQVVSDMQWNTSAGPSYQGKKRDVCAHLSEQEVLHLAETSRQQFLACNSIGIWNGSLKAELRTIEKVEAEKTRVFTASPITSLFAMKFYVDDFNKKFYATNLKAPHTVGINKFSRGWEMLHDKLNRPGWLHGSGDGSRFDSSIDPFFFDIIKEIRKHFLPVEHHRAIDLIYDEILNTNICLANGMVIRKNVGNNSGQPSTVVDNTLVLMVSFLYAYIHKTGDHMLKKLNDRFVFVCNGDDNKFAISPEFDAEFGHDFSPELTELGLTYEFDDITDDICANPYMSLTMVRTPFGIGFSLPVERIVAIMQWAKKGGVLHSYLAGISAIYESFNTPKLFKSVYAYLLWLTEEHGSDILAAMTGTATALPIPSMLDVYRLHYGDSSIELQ

[4] = substrate: Nc1nc2c(ncn2[C@@H]2O[C@H](COP(=O)(O)OP(=O)(O)O[C@H]3O[C@@H](CO)[C@@H](O)[C@@H](O)[C@@H]3O)[C@@H](O)[C@H]2O)c(=O)[nH]1; test: purified protein; assay type: biochemical, Triticum aestivum; details: 5 mM K2HPO4, 2.5 mM MgCl2, 50 mM KCl, 50 mM HEPES pH 6.9, 20 °C

Nc1nc2c(ncn2[C@@H]2O[C@H](COP(=O)(O)OP(=O)(O)O[C@H]3O[C@@H](CO)[C@@H](O)[C@@H](O)[C@@H]3O)[C@@H](O)[C@H]2O)c(=O)[nH]1 [GDP-L-galactose]
Kd [1]: 2.7 µM

NIb-His (natural protein)
Ka [2]: 167000 M⁻¹

B1: TaVTC2-GST (enzyme)
chain: T1 sequence (A0A650C200 1-431)
Kd [3]: 5.98 µM | Km [4]: 78 ± 22.9 µM
